{"source": "paper doi:10.1101/2025.01.06.631460", "about": "(bioRxiv, 2025)", "target": "the molecule itself", "assay": "single molecule photobleaching"}
{"protein": "CNGC14-GFP (natural protein, Arabidopsis thaliana, UniProt Q9SJA4 1-726, looked up) MEFKRDNTVRFYGDEKQTIEVGEKRVPLFKSTTAPFMKQEVLPKKSKTRLKIPRFGRFKVFPENFEIERDKILDPGGDAVLQWNRVFLFWCLVALYVDPLFFFLSSVKRIGRSSCMTTDLKLGIVITFFRTLADLFYVLHIVIKFRTAYVSRTSRVFGRGELVKDPKLIARRYLRSDFIVDLIACLPLPQIVSWFILPSIRSSHSDHTTNALVLIVLVQYIPRLYLIFPLSAEIIKATGVVTTTAWAGAAYNLLQYMLASHILGSAWYLLSIERQATCWKAECHKESVPLQCVTDFFDCGTLHRDDRNNWQNTTVVFSNCDPSNNIQFTFGIFADALTKNVVSSPFLEKYLYCLWFGLQNLSSYGQNLSTSTSVLETMFAILVAIFGLVLFALLIGNMQTYLQSITVRLEEWRLKRRDTEEWMGHRLLPQNLRERVRRFVQYKWLATRGVDEETILHSLPADLRRDIQRHLCLDLVRRVPLFAQMDDQLLDAICERLASSLSTQGNYIVREGDPVTEMLFIIRGKLESSTTNGGRTGFFNSITLRPGDFCGEELLAWALLPKSTVNLPSSTRTVRALEEVEAFALQAGDLKFVANQFRRLHSKKLQHTFRYYSHQWRTWAACFVQVAWRRYKRKKLAKSLSLAESFSSYDEEEAVAVAATEEMSHEGEAQSGAKARHHTSNVKPHFAATILASRFAKNTRRTAHKLKDVEIPMLPKPDEPDFSVDD", "values": [{"measurement": "stoichiometry N", "result": 4}]}
